In assay [1] the target is T1, native tomoregulin (TR) on TR-expressing cells (PC3-TR, CHO-TR) (human) (UniProt Q9UIK5).
T1 sequence (looked up): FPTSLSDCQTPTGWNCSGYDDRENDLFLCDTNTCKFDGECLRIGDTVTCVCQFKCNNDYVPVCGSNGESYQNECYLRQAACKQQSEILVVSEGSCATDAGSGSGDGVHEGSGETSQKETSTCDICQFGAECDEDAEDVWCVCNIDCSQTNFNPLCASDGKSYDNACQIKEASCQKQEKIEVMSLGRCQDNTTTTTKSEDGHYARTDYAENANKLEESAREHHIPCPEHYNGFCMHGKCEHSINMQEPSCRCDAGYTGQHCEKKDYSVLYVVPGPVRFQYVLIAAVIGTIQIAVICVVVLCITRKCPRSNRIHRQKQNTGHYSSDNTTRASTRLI
Nature of the assay: live cell ICELISA on PC3-TR cells; based on total scFv concentration.

The target in assay [2] is T2, recombinant TR protein (extracellular domain of TR, amino acids 1-302, C-terminal 6xHis tag) (human) (UniProt Q9UIK5).
T2 sequence (chain, glycosylated): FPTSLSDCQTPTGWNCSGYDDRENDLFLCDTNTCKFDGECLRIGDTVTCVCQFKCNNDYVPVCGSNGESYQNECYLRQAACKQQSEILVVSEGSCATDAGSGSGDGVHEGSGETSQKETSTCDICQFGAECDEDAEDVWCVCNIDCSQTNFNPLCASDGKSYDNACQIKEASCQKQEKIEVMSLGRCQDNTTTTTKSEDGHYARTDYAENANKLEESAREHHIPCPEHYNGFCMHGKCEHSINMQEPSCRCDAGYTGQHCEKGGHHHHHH
The assay is described as follows: ICELISA against direct ELISA on recombinant TR. Background: An ELISA detects its analyte on a solid surface through an enzyme-linked reagent.

Assay [3] concerns the target T2, recombinant TR protein (extracellular domain of TR, amino acids 1-302, C-terminal 6xHis tag) (human). Nature of the assay: ICELISA on recombinant TR, scFv pre-incubated with anti-E-tag antibody; based on total scFv.
In assay [4] the target is T3, recombinant TR protein (extracellular domain of TR, amino acids 1-302, C-terminal 6xHis tag) (human, UniProt Q9UIK5 41-302, glycosylated).
T3 construct: range 41-302; Secreted from baculovirus-infected High Five cells, purified by Ni chelate and size exclusion chromatography; also called 6×his-tagged recombinant TR; recombinant protein
T3 sequence: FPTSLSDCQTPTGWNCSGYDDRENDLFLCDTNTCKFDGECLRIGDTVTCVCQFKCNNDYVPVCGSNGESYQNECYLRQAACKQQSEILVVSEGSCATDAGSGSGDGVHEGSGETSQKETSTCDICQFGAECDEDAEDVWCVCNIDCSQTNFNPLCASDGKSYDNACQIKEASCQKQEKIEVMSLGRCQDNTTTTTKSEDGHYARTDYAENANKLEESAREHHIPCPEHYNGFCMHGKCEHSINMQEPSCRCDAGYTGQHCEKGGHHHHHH
Nature of the assay: direct ELISA on recombinant TR, monomeric scFv.

The target of assay [5] is T4, native tomoregulin (TR) on TR-expressing cells (PC3-TR, CHO-TR) (human, UniProt Q9UIK5 41-374).
T4 construct: whole, on cells; also called native TR; native receptor
T4 sequence (looked up): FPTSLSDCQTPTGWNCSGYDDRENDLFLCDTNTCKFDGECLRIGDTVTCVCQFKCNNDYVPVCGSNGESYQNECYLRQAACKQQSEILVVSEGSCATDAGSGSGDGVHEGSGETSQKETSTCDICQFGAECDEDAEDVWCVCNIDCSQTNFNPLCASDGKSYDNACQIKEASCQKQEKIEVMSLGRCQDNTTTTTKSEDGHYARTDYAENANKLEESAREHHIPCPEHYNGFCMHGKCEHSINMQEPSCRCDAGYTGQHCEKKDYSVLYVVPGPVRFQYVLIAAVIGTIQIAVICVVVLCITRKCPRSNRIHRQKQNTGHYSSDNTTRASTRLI
The assay is described as follows: FACS on PC3-TR cells. On the procedure:
(§1) Cells were detached with Cell Dissociation Buffer (GIBCO Invitrogen, Carlsbad, Calif.) and collected by centrifugation of 3000 rpm at 4° C. for 5 min. 2×10⁵ cells in 100 μl PBS buffer were incubated for 1 h at 4° C. with anti-TR antibodies at a range of concentrations. Excess antibody was washed away with 1 ml PBS followed by centrifugation, and cells were resuspended and incubated for 45 min at 4° C. in PBS 100 μl containing anti-mouse IgG-FITC (10 μg/mL, Vector Labs Inc.) as the second antibody. Excess antibody was washed away with 1 mL PBS and by centrifugation. Cells were resuspended in 200 μL PBS containing 5 μL propidium iodide (1 μg/ml). Fluorescence intensity was measured on a FACS Calibur (Becton Dickinson). Experiments were performed in triplicate.
(§2) Binding of AT-19 IgG to PC3 cells expressing TR was compared to mouse anti-TR IgG 2H8 by FACS. 2H8 is a murine IgG1 monoclonal antibody that reacts with the follistatin domains of the extra-cellular region of human TR protein (Afar et al., Mol. Cancer Ther., 3:921, 2004). It is used throughout as a positive control antibody.

In assay [6] the target is T4, native tomoregulin (TR) on …. The assay is described as follows: live cell ELISA on PC3-TR cells.
Assay [7] has the same target. Nature of the assay: FACS on PC3-TR cells, IgG against scFv monomer; not exactly quantified. On the procedure: as §1, §2

B1: AT-19 scFv immune complex (AT-19 scFv dimerized by pre-incubation with mouse anti-E-tag monoclonal IgG) (protein, part only; not given: E-tag and anti-E-tag IgG, not shown: small tags and cut ends)
scFv, part: QVQLVQSGGGLVQPGGSLRLSCAASGFTFSNYAMSWVRQAPGKGLEWVSAISGNGGATYYADSMKGRFTISRDNSKNTLSLQLNSLRVEDTAVYYCAKSLIWGYDRGVDYWGQGTLVTVSAGGGGSGGGGSGGGGSGAPHVILTQPPSASGTPGQRVTISCSGGASNIGTNSVNWYQQLPGTAPKLLLYTNDHRPSGVPDRFSGKSGTSASLAISGLQAEDEGDYYCAAWDDTMNGHVVFGGGTKLTVLG
As for B1, the results for the EC50 in assay [1] and in assay [3] were 8.5 nM and 1.3 nM, respectively. In assay [2], the fold improvement of EC50 against monomeric AT-19 scFv was greater than 20 fold.

B2: AT-19 scFv (monomeric, monovalent single-chain anti-TR antibody) (scFv)
scFv: QVQLVQSGGGLVQPGGSLRLSCAASGFTFSNYAMSWVRQAPGKGLEWVSAISGNGGATYYADSMKGRFTISRDNSKNTLSLQLNSLRVEDTAVYYCAKSLIWGYDRGVDYWGQGTLVTVSAGGGGSGGGGSGGGGSGAPHVILTQPPSASGTPGQRVTISCSGGASNIGTNSVNWYQQLPGTAPKLLLYTNDHRPSGVPDRFSGKSGTSASLAISGLQAEDEGDYYCAAWDDTMNGHVVFGGGTKLTVLG
notes: also called monovalent AT-19 scFv; monomeric AT-19 scFv; not shown: E-tag from the pZ603 (pCANTAB5E-based) vector
For the molecule B2, the EC50 – broadly, the concentration needed to bring the measured effect to its halfway point – in assay [4] was 22 nM.

B3: AT-19 IgG (fully human IgG1 format of AT-19) (antibody, V domains shown)
VH: QVQLVQSGGGLVQPGGSLRLSCAASGFTFSNYAMSWVRQAPGKGLEWVSAISGNGGATYYADSMKGRFTISRDNSKNTLSLQLNSLRVEDTAVYYCAKSLIWGYDRGVDYWGQGTLVTVSA
VL: HVILTQPPSASGTPGQRVTISCSGGASNIGTNSVNWYQQLPGTAPKLLLYTNDHRPSGVPDRFSGKSGTSASLAISGLQAEDEGDYYCAAWDDTMNGHVVFGGGTKLTVLG
notes: also called fully human AT-19 IgG
Turning to B3, the EC50 in assay [5] was found to be 0.17 nM; in assay [6] it was 0.44 nM. Further, the “avidity effect (fold) against the scFv monomer” value in assay [7] was greater than 20 fold.

The values above are taken from US20060292074A1 (SCHERING AKTIENGESELLSCHAFT, published 2006).
